# Reference: patent publication US20250163182A1 (Janssen / Centocor, published 2025)
# T1: human ENPP3 on cells (human, UniProt O14638 1-875)
# T1 sequence (looked up): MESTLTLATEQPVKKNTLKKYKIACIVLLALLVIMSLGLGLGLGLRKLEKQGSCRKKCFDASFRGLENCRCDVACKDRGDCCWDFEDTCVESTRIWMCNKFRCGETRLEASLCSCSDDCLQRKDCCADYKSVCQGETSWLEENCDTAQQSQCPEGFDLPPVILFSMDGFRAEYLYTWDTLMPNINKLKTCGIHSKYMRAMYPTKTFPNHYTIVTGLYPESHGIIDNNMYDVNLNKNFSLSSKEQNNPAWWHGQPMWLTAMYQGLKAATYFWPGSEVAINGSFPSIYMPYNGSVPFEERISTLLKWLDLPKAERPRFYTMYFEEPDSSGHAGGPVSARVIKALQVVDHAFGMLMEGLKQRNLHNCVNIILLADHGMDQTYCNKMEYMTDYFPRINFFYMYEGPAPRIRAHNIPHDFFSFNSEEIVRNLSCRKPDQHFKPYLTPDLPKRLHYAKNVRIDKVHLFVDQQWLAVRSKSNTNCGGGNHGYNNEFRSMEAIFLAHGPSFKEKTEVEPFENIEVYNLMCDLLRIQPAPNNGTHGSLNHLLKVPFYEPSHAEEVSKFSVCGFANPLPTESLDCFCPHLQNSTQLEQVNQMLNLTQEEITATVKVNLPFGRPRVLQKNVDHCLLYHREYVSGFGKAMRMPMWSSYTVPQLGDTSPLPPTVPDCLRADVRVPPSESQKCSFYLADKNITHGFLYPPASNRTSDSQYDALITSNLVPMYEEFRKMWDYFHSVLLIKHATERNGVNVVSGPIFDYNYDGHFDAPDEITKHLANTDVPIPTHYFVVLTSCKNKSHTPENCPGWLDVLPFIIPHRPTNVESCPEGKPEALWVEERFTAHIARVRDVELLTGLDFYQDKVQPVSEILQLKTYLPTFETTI
# Tests used:
# human ENPP3 on cells [1] = target: T1, human ENPP3 on cells; assay: cell-based or functional assay
# human ENPP3 on cells [2] = target: T1, human ENPP3 on cells; assay: cell-based or functional assay; remark: listed apart in the source
# human ENPP3 on cells [3] = target: T1, human ENPP3 on cells; assay: flow cytometry on CHO ENPP3 OE cells
# human CD3 on T cells = target: T2, human CD3 on T cells (human, UniProt P07766 23-207); assay: flow cytometry on human T cells, donor 110040278
# T2 construct: on T cells it stands in the TCR-CD3 complex; also called human T cells; T cells isolated from healthy human donors
# T2 sequence (P07766 23-207 limits assumed): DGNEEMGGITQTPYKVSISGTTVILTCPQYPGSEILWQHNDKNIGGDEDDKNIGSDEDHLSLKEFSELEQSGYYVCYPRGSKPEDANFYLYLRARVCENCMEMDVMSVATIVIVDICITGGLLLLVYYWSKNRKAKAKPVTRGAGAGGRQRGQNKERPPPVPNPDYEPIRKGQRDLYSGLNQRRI
binder,measurement,setting,value
"NPP3B815 (bispecific antibody, human IgG1, kappa, L234A L235A, HC2 carries the NPP3B56 Fab and the hole T366S, L368A, Y407V; Fc with L234A, L235A, D265S; The CPPC linker cysteines form disulfides with engineered Cys at L42 and H105 (Chothia); also called NPP3B56×CD3B2030-N106A; ENPP3×CD3 (NPP3B815)) heavy 1: EIVLTQSPATLSASPGERVTLSCSASSSVSYMNWYQQKPGCAPRRWIYDSSKLASGVPARFSGSGSGRDYTLTISSLEPEDFAVYYCQQWSRNPPTFGGGTKVEIKGGGSGGSGGCPPCGGSGGQVQLVQSGAEVKKPGSSVKVSCKASGYTFTRSTMHWVKQAPGQGLEWIGYINPSSAYTNYNQKFQGRVTLTADKSTSTAYMELSSLRSEDTAVYYCASPQVHYDYAGFPYWGCGTLVTVSSEPKSSDKTHTCPPCPAPEAAGGPSVFLFPPKPKDTLMISRTPEVTCVVVSVSHEDPEVKFNWYVDGVEVHNAKTKPREEQYNSTYRVVSVLTVLHQDWLNGKEYKCKVSNKALPAPIEKTISKAKGQPREPQVYTLPPSREEMTKNQVSLWCLVKGFYPSDIAVEWESNGQPENNYKTTPPVLDSDGSFFLYSKLTVDKSRWQQGNVFSCSVMHEALHNHYTQKSLSLSPGK heavy 2: EVQLVESGGGRVKPGGSLRLSCAASGFTFSDYSMNWVRQAPGKGLEWVSSISSISSYVKYADSVKGRFTMSRDNAKNSLFLQMNSLRDEDMAVYYCARGHYFDYWGQGTLVTVSSASTKGPSVFPLAPSSKSTSGGTAALGCLVKDYFPEPVTVSWNSGALTSGVHTFPAVLQSSGLYSLSSVVTVPSSSLGTQTYICNVNHKPSNTKVDKKVEPKSCDKTHTCPPCPAPEAAGGPSVFLFPPKPKDTLMISRTPEVTCVVVSVSHEDPEVKFNWYVDGVEVHNAKTKPREEQYNSTYRVVSVLTVLHQDWLNGKEYKCKVSNKALPAPIEKTISKAKGQPREPQVYTLPPSREEMTKNQVSLSCAVKGFYPSDIAVEWESNGQPENNYKTTPPVLDSDGSFFLVSKLTVDKSRWQQGNVFSCSVMHEALHNRFTQKSLSLSPGK light: not shown",killing EC50 @ 72 hrs; A704; T-cell donor 110040278; E:T 1:1,human ENPP3 on cells [1],0.075 nM
same,killing EC50 @ 72 hrs; A704; T-cell donor 110040278; E:T 3:1,human ENPP3 on cells [1],0.0484 nM
same,killing EC50 @ 72 hrs; A704; T-cell donor 110042496; E:T 1:1,human ENPP3 on cells [1],0.132 nM
same,killing EC50 @ 72 hrs; A704; T-cell donor 110042496; E:T 3:1,human ENPP3 on cells [1],0.0696 nM
same,killing EC50 @ 72 hrs; A704; T-cell donor 110042593; E:T 1:1,human ENPP3 on cells [1],0.114 nM
same,killing EC50 @ 72 hrs; A704; T-cell donor 110042593; E:T 3:1,human ENPP3 on cells [1],0.0336 nM
same,killing EC50 @ 72 hrs; A704; T-cell donor 110044049; E:T 3:1,human ENPP3 on cells [1],0.0524 nM
same,killing EC50 @ 72 hrs; A704; T-cell donor 888668965; E:T 3:1,human ENPP3 on cells [1],0.0454 nM
same,killing EC50 @ 72 hrs; VMRCRCW; T-cell donor 110040278; E:T 1:1,human ENPP3 on cells [1],0.243 nM
same,killing EC50 @ 72 hrs; VMRCRCW; T-cell donor 110040278; E:T 1:3,human ENPP3 on cells [1],0.456 nM
same,killing EC50 @ 72 hrs; VMRCRCW; T-cell donor 110040278; E:T 3:1,human ENPP3 on cells [1],0.0923 nM
same,killing EC50 @ 72 hrs; VMRCRCW; T-cell donor 110042496; E:T 1:1,human ENPP3 on cells [1],0.465 nM
same,killing EC50 @ 72 hrs; VMRCRCW; T-cell donor 110042496; E:T 3:1,human ENPP3 on cells [1],0.128 nM
same,killing EC50 @ 72 hrs; VMRCRCW; T-cell donor 110042593; E:T 1:1,human ENPP3 on cells [1],0.225 nM
same,killing EC50 @ 72 hrs; VMRCRCW; T-cell donor 110042593; E:T 3:1,human ENPP3 on cells [1],0.0795 nM
same,killing EC50 @ 72 hrs; VMRCRCW; T-cell donor 110044049; E:T 1:1,human ENPP3 on cells [1],0.151 nM
same,killing EC50 @ 72 hrs; VMRCRCW; T-cell donor 110044049; E:T 1:3,human ENPP3 on cells [1],0.226 nM
same,killing EC50 @ 72 hrs; VMRCRCW; T-cell donor 110044049; E:T 3:1,human ENPP3 on cells [1],0.115 nM
same,killing EC50 @ 72 hrs; VMRCRCW; T-cell donor 110048457; E:T 1:1,human ENPP3 on cells [1],0.177 nM
same,killing EC50 @ 72 hrs; VMRCRCW; T-cell donor 110048457; E:T 1:3,human ENPP3 on cells [1],0.276 nM
same,killing EC50 @ 72 hrs; VMRCRCW; T-cell donor 110048457; E:T 3:1,human ENPP3 on cells [1],0.372 nM
same,killing EC50 @ 72 hrs; VMRCRCW; T-cell donor 888668965; E:T 1:1,human ENPP3 on cells [1],0.273 nM
same,killing EC50 @ 72 hrs; VMRCRCW; T-cell donor 888668965; E:T 1:3,human ENPP3 on cells [1],0.469 nM
same,killing EC50 @ 72 hrs; VMRCRCW; T-cell donor 888668965; E:T 3:1,human ENPP3 on cells [1],0.156 nM
same,killing EC50 @ 120 hrs; A704; T-cell donor 110040278; E:T 1:1,human ENPP3 on cells [1],0.041 nM
same,killing EC50 @ 120 hrs; A704; T-cell donor 110040278; E:T 1:3,human ENPP3 on cells [1],0.149 nM
same,killing EC50 @ 120 hrs; A704; T-cell donor 110042496; E:T 1:1,human ENPP3 on cells [1],0.073 nM
same,killing EC50 @ 120 hrs; A704; T-cell donor 110042496; E:T 1:3,human ENPP3 on cells [1],0.191 nM
same,killing EC50 @ 120 hrs; A704; T-cell donor 110042593; E:T 1:1,human ENPP3 on cells [1],0.048 nM
same,killing EC50 @ 120 hrs; A704; T-cell donor 110042593; E:T 1:3,human ENPP3 on cells [1],0.106 nM
same,killing EC50 @ 120 hrs; A704; T-cell donor 110044049; E:T 1:1,human ENPP3 on cells [1],0.125 nM
same,killing EC50 @ 120 hrs; A704; T-cell donor 888668965; E:T 1:3,human ENPP3 on cells [1],0.163 nM
same,killing EC50 @ 120 hrs; VMRCRCW; T-cell donor 110040278; E:T 1:1,human ENPP3 on cells [1],0.264 nM
same,killing EC50 @ 120 hrs; VMRCRCW; T-cell donor 110040278; E:T 1:3,human ENPP3 on cells [1],0.332 nM
same,killing EC50 @ 120 hrs; VMRCRCW; T-cell donor 110042496; E:T 1:1,human ENPP3 on cells [1],0.454 nM
same,killing EC50 @ 120 hrs; VMRCRCW; T-cell donor 110042496; E:T 1:3,human ENPP3 on cells [1],0.5 nM
same,killing EC50 @ 120 hrs; VMRCRCW; T-cell donor 110042593; E:T 1:1,human ENPP3 on cells [1],0.218 nM
same,killing EC50 @ 120 hrs; VMRCRCW; T-cell donor 110042593; E:T 1:3,human ENPP3 on cells [1],0.485 nM
same,killing EC50 @ 120 hrs; VMRCRCW; T-cell donor 110044049; E:T 1:1,human ENPP3 on cells [1],0.216 nM
same,killing EC50 @ 120 hrs; VMRCRCW; T-cell donor 110044049; E:T 1:3,human ENPP3 on cells [1],0.337 nM
same,killing EC50 @ 120 hrs; VMRCRCW; T-cell donor 110048457; E:T 1:1,human ENPP3 on cells [1],0.21 nM
same,killing EC50 @ 120 hrs; VMRCRCW; T-cell donor 110048457; E:T 1:3,human ENPP3 on cells [1],0.267 nM
same,killing EC50 @ 120 hrs; VMRCRCW; T-cell donor 888668965; E:T 1:1,human ENPP3 on cells [1],0.345 nM
same,killing EC50 @ 120 hrs; VMRCRCW; T-cell donor 888668965; E:T 1:3,human ENPP3 on cells [1],0.379 nM
same,killing EC50; A704; PBMC donor 110040278; E:T 3:1,human ENPP3 on cells [2],0.052 nM
same,killing EC50; A704; PBMC donor 110040278; E:T 5:1,human ENPP3 on cells [2],0.028 nM
same,killing EC50; A704; PBMC donor 110042496; E:T 3:1,human ENPP3 on cells [2],0.097 nM
same,killing EC50; A704; PBMC donor 110042496; E:T 5:1,human ENPP3 on cells [2],0.061 nM
same,killing EC50; A704; PBMC donor 110042593; E:T 1:1,human ENPP3 on cells [2],0.124 nM
same,killing EC50; A704; PBMC donor 110042593; E:T 3:1,human ENPP3 on cells [2],0.039 nM
same,killing EC50; A704; PBMC donor 110042593; E:T 5:1,human ENPP3 on cells [2],0.015 nM
same,killing EC50; A704; PBMC donor 110044049; E:T 1:1,human ENPP3 on cells [2],0.131 nM
same,killing EC50; A704; PBMC donor 110044049; E:T 3:1,human ENPP3 on cells [2],0.052 nM
same,killing EC50; A704; PBMC donor 110044049; E:T 5:1,human ENPP3 on cells [2],0.016 nM
same,killing EC50; A704; PBMC donor 110048457; E:T 3:1,human ENPP3 on cells [2],0.046 nM
same,killing EC50; A704; PBMC donor 110048457; E:T 5:1,human ENPP3 on cells [2],0.013 nM
same,killing EC50; A704; PBMC donor 888668965; E:T 1:1,human ENPP3 on cells [2],0.107 nM
same,killing EC50; A704; PBMC donor 888668965; E:T 3:1,human ENPP3 on cells [2],0.036 nM
same,killing EC50; A704; PBMC donor 888668965; E:T 5:1,human ENPP3 on cells [2],0.015 nM
same,killing EC50; VMRCRCW; PBMC donor 110040278; E:T 5:1,human ENPP3 on cells [2],0.033 nM
same,killing EC50; VMRCRCW; PBMC donor 110042496; E:T 5:1,human ENPP3 on cells [2],0.065 nM
same,killing EC50; VMRCRCW; PBMC donor 110042593; E:T 5:1,human ENPP3 on cells [2],0.033 nM
same,killing EC50; VMRCRCW; PBMC donor 110044049; E:T 5:1,human ENPP3 on cells [2],0.051 nM
same,killing EC50; VMRCRCW; PBMC donor 110048457; E:T 5:1,human ENPP3 on cells [2],0.063 nM
same,killing EC50; VMRCRCW; PBMC donor 888668965; E:T 5:1,human ENPP3 on cells [2],0.062 nM
same,EC50,human ENPP3 on cells [3],0.51 nM
same,EC50,human CD3 on T cells,253 nM
